Patent publication US20240369485A1, “FLUORESCENT SENSOR FOR MONITORING CALCIUM DYNAMICS” (priority 2021, published 2024)
Like-named read-outs stand apart in the source and are kept apart here.

Tests used:
[1] = system: primary hippocampal neurons; test: Wide-field imaging in neuronal cultures; assay type: cell-based, mice; conditions: for decrease of fluorescence upon DHPG: 100 μM DHPG; for ER Ca^2+ transient ΔF/F: field stimulation 50 Hz for 1 s
Description: Wide-field imaging in neuronal cultures. Primary neuronal cultures were generated from embryonic day 18 or postnatal day 0-1 mice and plated onto poly-D-lysine (Sigma) coated coverslips as previously described. Neurons were maintained in neuronal feeding media (Neurobasal media, ThermoFisher Scientific) containing 1% GlutaMAX (ThermoFisher Scientific), 2% B-27 (ThermoFisher Scientific), 0.002 mg/mL Gentamicin (Sigma) with or without 10 μM 5 fluoro 2-deoxyuridine (Sigma-Aldrich) and fed every 3-4 days via half neuronal feeding media exchanges. Neurons were transfected with plasmid(s) through either lipofection or electroporation. For lipofection, at 11-12 days in vitro, cells were transfected using Lipofectamine 2000 Reagent (ThermoFisher Scientific) with a modified protocol. For electroporation, dissociated cells in suspension were electroporated in a cuvette using the 4D-Nucleofector system (Lonza) following the manufacturer's instructions prior to plating in FBS-containing Neurobasal media without B-27. Full media exchange was performed the following day with serum- and antibiotics-free Neurobasal media.
Neurons were imaged between 12-15 days in vitro, using an inverted (Olympus IX71) or an upright (Scientifica HyperScope) wide-field fluorescence microscope equipped with an epi-fluorescence turret (Olympus), a scientific CMOS camera (Hamamatsu ORCA-Flash4.0 LT), a mercury lamp (Olympus) or an LED light source (CoolLED pE-300ultra), and an oil- (Olympus Uapo/340 40×/1.35NA) or water-immersion objective (Nikon CFI75 LWD 16×W 0.8NA), respectively. R-CatchER or jGCaMP7s was viewed using a TRITC (Chroma 41002) or FITC (Chroma 41001) fluorescence filter cube, respectively. Images were obtained every 5 s or 33.3 ms using Micro-Manager (the Vale lab, UCSF) at room temperature.
The external solution contained 150 mM NaCl, 3 mM KCl, 2 mM MgCl2, 2 mM CaCl2), 10 mM HEPES, and 20 mM glucose at a pH of 7.35. mGluR agonists were applied in the bath. Field electrical stimulation was applied with a stimulus isolator (World Precision Instruments A360) via an imaging chamber with two platinum wires (Warner Instruments RC-21BRFS). Trains (2 ms to 2 s at 50 HZ) of pulses (10 mA for 2 ms) were controlled by pClamp 10 software and Digidata 1440A data acquisition system (Molecular Devices). Imaging data were processed and analyzed using in-house and NeuroMatic (Jason Rothman) macros in Igor Pro 8 (WaveMetrics).

[2] = Calcium (Ca^2+) binding assay: fluorescence/absorbance titration of purified protein
Summary of the method: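 Purified mApple, EGFP and mCherry variants at 10 μM (mApple with 5 μM EGTA in 10 mM Tris, pH 7.4, triplicate) were titrated stepwise with Ca^2+. Fluorescence was followed across the titration, with absorbance spectra of Ca^2+-free and Ca^2+-loaded forms taken before and after. Affinity came from a 1:1 binding fit.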

HeLa cells = assay type: cell-based
Description: Cell culture and transfection. C2C12, HEK293 and HeLa cells were cultured and maintained in Dulbecco's modified Eagle's medium (DMEM) supplemented with 10% fetal bovine serum (FBS) and high glucose (4.5 g/L) at 37° C. R-CatchER, G-CatchER2, G-CEPIA1er, R-CEPIA1er or R-CatchER with GFP-CaSR (wt and mutations) were transfected into cells using Lipofectamine 3000 (Life Technologies), following the manufacturer's instructions. Seed cells onto sterilized 22 mm×40 mm glass microscope slides in 6 cm dishes until about 70% confluency, the day of transfection. The next day, 2 μg of plasmid were mixed with transfection reagent in the reduced serum media Opti-MEM for 4-6 h at 37° C. The media was then replaced with 3 mL of fresh DMEM and incubated at 37° C. for 48 h.
HILO imaging of R-CatchER, G-CatchER2, R-CEPIA1er, and G-CEPIA1er. Samples were mounted in a perfusion chamber and imaged using a customized optical microscope based on a Nikon TiE inverted microscope equipped with a 100×TIRF objective (N.A. 1.49, Nikon) and a highly sensitive electron multiplying charge-coupled device (EMCCD) camera (Andor Ixon Ultra 888). A fiber-coupled 488 nm or 561 nm laser (LBX-488/LCX-561, Oxxius) was first collimated and then focused to the back focal plane of the TIRF objective using an achromatic optical lens of 200 mm focal length (AC254-200-A, Thorlabs). To achieve HILO imaging, the incident angle of the excitation laser was adjusted to be slightly smaller than the critical angles at the cell-coverslip interface through translational movement the optical axis of the incident light beam by a motorized stage (SGSP-20-20, Sigma Koki). An efficient excitation volume of few micrometers was obtained under HILO illumination. A quad-band filter set (TRF89901v2, Chroma) was used for filtering out the fluorescence background. Fluorescence images of samples were recorded at 1 Hz as the concentration of ER Ca^2+ was perturbed by perfusion of 3 μM Thapsigargin, 0.5 mM 4-cmc, 1 mM 4-cmc, 100 μM ATP, or 100 μM histamine.

- Ca^2+ induced fluorescence changes upon addition of other ions (metal selectivity) ([2]; 1 mM Mg^2+, 150 mM KCl, 150 mM NaCl): insensitive
- Fmax/Fmin ([2]; EGFP and mApple variants): 4.22
- Aholo/Aapo ([2]; absorbance at 569): 4.33 (569)
- fluorescence dynamic range ΔF/F ([2]; in vitro, Ca^2+ binding): 4.22±0.04
- Kd ([2]; in vitro, purified protein, read-out: Kd for Ca^2+ binding): 350 ± 30 µM
- Hill coefficient ([2]; purified indicator, Ca^2+ binding): 0.98
- Dynamic Range ([2]; purified indicator, Ca^2+ induced fluorescence): 4.2
- Kd ([2]; purified indicator, Ca^2+, read-out: Kd): 361 µM
B1: R-CatchER: red genetically encoded Ca^2+ indicator, mApple A145E/K198D/R216D, SEQ ID NO: 12 (protein)
chain: EENNMAIIKEFMRFKVHMEGSVNGHEFEIEGEGEGRPYEAFQTAKLKVTKGGPLPFAWDILSPQFMYGSKVYIKHPADIPDYFKLSFPEGFRWERVMNFEDGGIIHVNQDSSLQDGVFIYKVKLRGTNFPSDGPVMQKKTMGWEESEERMYPEDGALKSEIKKRLKLKDGGHYAAEVKTTYKAKKPVQLPGAYIVDIDLDIVSHNEDYTIVEQYEDAEGRHSTGGMDELYK
- decrease of fluorescence upon DHPG ([1]; primary, first value (dendrites by printed order)): 0.13±0.02
- decrease of fluorescence upon DHPG ([1]; primary, second value (branchpoints by printed order)): 0.08±0.01
- decrease of fluorescence upon DHPG ([1]; secondary, first value (dendrites by printed order)): 0.12±0.03
- decrease of fluorescence upon DHPG ([1]; secondary, second value (branchpoints by printed order)): 0.07±0.01
- ER Ca^2+ transient ΔF/F ([1]; branchpoints): 0.077±0.022
- ER Ca^2+ transient ΔF/F ([1]; primary dendrites): 0.083±0.039
- ER Ca^2+ transient ΔF/F ([1]; secondary dendrites): 0.036±0.017
- ER Ca^2+ transient ΔF/F ([1]; soma): 0.173±0.048
- fluorescence decrease ΔF/F (HeLa cells; 3 μM Thapsigargin (Tg), 0 mM Ca^2+): 0.69±0.07
- half decay time of the first peak of ER Ca^2+ oscillations (HeLa cells; 100 μM histamine): 1.8 ± 0.1 s
- half rise time of the first peak of ER Ca^2+ oscillations (HeLa cells; 100 μM histamine): 7.3 ± 0.1 s
